Laboratory results taken from patent US20250236644A1 (published 2025).
Where two headings read alike, the source gives them in different places. Ends that are not written are not given here.

Columns and labels:
[1] = biological target: T1, TAMRA-labeled effector peptide cs074B (5(6)-TAMRA label coupled on resin after synthesis); assay: fluorescence polarization
T1 peptide: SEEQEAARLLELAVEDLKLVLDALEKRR

[2] = biological target: T2, TAMRA-labeled effector peptide cs221B (5(6)-TAMRA label coupled on resin after synthesis); assay: fluorescence polarization
T2 peptide: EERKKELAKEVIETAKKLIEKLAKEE

[3] = biological target: T3, TAMRA-labeled effector peptide cs201B (5(6)-TAMRA label coupled on resin after synthesis); assay: fluorescence polarization
T3 peptide: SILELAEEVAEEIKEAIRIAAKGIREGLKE

[4] = biological target: T1, TAMRA-labeled effector peptide cs074B; assay: fluorescence polarization
[5] = biological target: T4, TAMRA-labeled effector peptide js007B (5(6)-TAMRA label coupled on resin after synthesis); assay: fluorescence polarization
T4 peptide: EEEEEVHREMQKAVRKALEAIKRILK

[6] = biological target: T2, TAMRA-labeled effector peptide cs221B; assay: fluorescence polarization
[7] = biological target: cs221-V111L-A114T DEER site pair 1; assay: fluorescence polarization; MTSL-labeled, site pair 1

B1: hinge cs074 (designed binder)
chain: MSGDEEVQEAVERAEELREEAEELIKKARKTGDPELLRKALEALKEAVRAVKEAIKRNPDNEEAVKTAVRLARELLKVAEELKERAEKTGDPRLLLLAAEAIAWAIEAVFLAAKASENTEGALEAARAAVKLAEVAKRIAKLLQRDAKKEGDPELLKLALRALELAVRAVELAIKENPDNEEAVETAKRLAEELRKVAELLEERAKETGDPELQELAKRAKEVADRARELAKKSNPNNGSGSHHWGSTHHHHHH
Question: For B1, which Kd [1] is on record?
Answer: 1 nM

B2: swapped target hinge csw13 (designed binder)
chain: MSGNEEVKKLVEEAKKYLKEAEEYIKKAKKTGNEELLEKALKLLEKALELVKKAIELDPNNKEAIEQAVEIARALNEVAELLIEEAKKTGNEELLEKALEALEAANEALKLAIENNENDKELLAEIAVELAEVGVLLAEVLIEEAKKTGDPELLKLALEVLEAAVEALELALKLDPNNEEAVELAEEAAKLLEEVAKELKEEAKKTGDPELEKLAKEAEELAKRAKELAERQRGSGSHHWGSTHHHHHH
Question: For B2, which Kd [2] is on record?
Answer: < 1 nM

B3: hinge cs201 (designed binder)
chain: MSGDEEVQEAVERAEELREEAEELIKKARKTGDPELLRKALEALKEAVRAVREAIKRNPDNEEAIKTALRLARELRKVAKELIERARKTGDAELLKKALEAARVAVEAVRLAAEYNKENAEKMAELLVELAELAREVADVLIELAEKTGDPELLKKALEVLEEAVEAVRLAIEYDPDHEEAVETAKRLAEELRKVAELLEERAKETGDPELQELAKRAKEVADRARELAKKSNGSGSHHWGSTHHHHHH
Question: B3 was tested. Which Kd [2] did it give?
Answer: 4370 nM

Question: And the Kd [3]?
Answer: 17 nM

B4: swapped target hinge csw20 (designed binder)
chain: MSGMEEVKELVEKAEELAKEAEELIKKAKKTGNPELLKEALRKLKEAVELAKEAVELDPEHEEAIELLARLAEKLLEVAKLLIELAKKTGNPELLKEALRALKEAREALRLAAEHAPEDAKLLARLAARLAELALLIAKILIELAKKTGNPELLLKALKVLTLAVEAVEAALEADPRLKEAVRVAKELAEVLKELAKLAKELAKKTGNEELKEAAKEAEEVAKRAEELAREAEGSGSHHWGSTHHHHHH
Question: Which results are given for B4?
Answer: Kd [4]: < 1 nM; Kd [2]: 1500 nM; Kd [3]: 12 nM

B5: hinge js007 (designed binder)
chain: MSGSEEVNERVKQLAEKAKEATDKEEVIEIVKELAELAKQSTDPNLVAEVVRALTEVAKTSTDTELIQEIVKVLLELARRLTDPQLLLEVLKSIAELLKELAEKTGNETAKLAALVAQIAAEVVEMALRAEKTHPGSEIVKLAVELVQKVAEIVLIAAQLMLDKPNSDEVRKVLKEVEKVAREALKALREAKRHPDSQKARDEIKEASQKAEEVKERIERAQEGSGSHHWGSTHHHHHH
Question: Which Kd [5] does the source give for B5 here?
Answer: 6 nM

B6: hinge cs221 (designed binder)
chain: MSGEMKEEIRRLAEELRERTKDEEVRELAREAARLAEESDDEEVKEVVKKALEAALKSKDEEVIRLLLLAAVLAAAAARSGSPEEKLEIAKKALELAMKSKDEEVIRLALLAAVLAARSDDEEVLKKVKEALEKAMESKDVEEIRERLREAVEVARAGSGSHHWGSTHHHHHH
Question: For B6, which Kd [6] is on record?
Answer: 1.5 nM

Question: Which Kd [7] does the source give for {5(6)‑TAMRA}-EERKKELAKEVIETAKKLIEKLAKEE [TAMRA-labeled peptide cs221B] here?
Answer: 0.4 nM
